# Source: the DeepSol protein solubility set
# Test: soluble on expression in E. coli; label from the status in PepcDB or PDB records
row,Sequence,soluble on expression in E. coli
1,MGHHHHHHSHMGDPEYLATFRIVVMPIAREFSPDLVLVSAGFDAAEGHPAPLGGYHVSAKCFGYMTQQLMNLAGGAVVLALEGGHDLTAICDASEACVAALLGNRVDPLSEEGWKQKPNLNAIRSLEAVIRVHSKYWGCMQRLASCPDSWVPRVPGADKEEVEAVTALASLSVGILAEDRPSEQLVEEEEPMNL,not soluble
2,MGHHHHHHSHMGKGPNLLALQLSDSTLADIIARLQAGQKLSGSSPFSSAFNSLSLDKESGLLMFKGDKKPRVWVVPTQLRRDLIFSVHDIPLGAHQRPEETYKKLRLLGWWPGMQEHVKDYCRSCLFCIPRNLIGSELKVIESPASVLRGQGVCNRSGTR,not soluble
3,MGHHHHHHSHMIFLSTLFWYNKLMNKSTFSLNDTAWVDFYQLQNPRQNENYTFPAIIICPGGGYQHISQRESDPLALAFLAQGYQVLLLNYTVMNKGTNYNFLSQNLEEVQAVFSLIHQNHKEWQINPEQVFLLGCSAGGHLAAWYGNSEQIHRPKGVILCYPVTSFTFGWPSDLSHFNFEIENISEYNISEKVTSSTPPTFIWHTADDEGVPIYNSLKYCDRLSKHQVPFEAHFFESGPHGVSLANRTTAPSDAYCLPSVHRWVSWASDWLERQIKN,soluble
4,MGHHHHHHSHMINVDPPTGNYPATGGNSTHNITSESDSRLAFKVKSSNNEHYRVRPVYGFVDAKGKSKLDINRLPGPPKEDKIVIQYAEVPAEETDPMAPFKAGAQQGEIIVKLIAA,soluble
5,MGHHHHHHSHMKATSVIDDFLGGYFCILGLLQPHLERVAIDALQLCCLLLPPPNRRKLQLLMRMISRMSQNVDMPKLHDAMGTRSLMIHTFSRCVLCCAEEVDLDELLAGRLVSFLMDHHQEILQVPSYLQTAVEKHLDYLKKGHIENPGDGLFAPLPTYSYCKQISAQEFDEQKVSTSQAAIAELLENIIKNRSLPLKEKRKKLKQFQKEYPLIYQKRFPTTESEAALFGDKPTIKQPMLILRKPKFRSLR,not soluble
6,MGHHHHHHSHMKNMEQQHIEVVGKLGSTYGIRGWLRIYSSTEQAESIFDYQPWFLKIKGEWQSIELENWRYHNHEIIVKLKGVDDREAAQILANVEIGVDLSVFPELEEGDYYWHDLIGCTVVNLEGYTMGTVTEMMETGSNDVLVVKANTKDAFGKQERLIPFLYEQVVKRVDLTTKTIEVDWDAGF,soluble
7,MGHHHHHHSHMLFIKFIHLEVFSMPERAIARHEVREIEQRHTMDGPRQDATLDEEEDMVIIYNRVPKTASTSFTNIAYDLCAKNKYHVLHINTTKNNPVMSLQDQVRFVKNITSWKEMKPGFYHGHVSYLDFAKFGVKKKPIYINVIRDPIERLVSYYYFLRFGDDYRPGLRRRKQGDKKTFDECVAEGGSDCAPEKLWLQIPFFCGHSSECWNVGSRWAMDQAKYNLINEYFLVGVTEELEDFIMLLEAALPRFFRGATELYRTAPDTATPSHRHGPICGSKSISSLLVKVSPVCKDSHCLGKCSRNGLSAV,not soluble
8,MGHHHHHHSHMLSHFETNSALLEQLSELQGSTEPFLTEHPHMAAEHTVNWLTIAALSSAIDKNEEKLAALSEKCVVFQLFLASATGQKQFFKKFEVSENLDEVKAFKSRMRSRAQAKGEKPEKINLNQGTVDSRQFLEELKQLENLKKVRFIGKFVRKLILIVKFKFYE,not soluble
9,MGHHHHHHSHMNSAEQTVTWLITLGVLESPKKTISDPEGFLQASLKDGVVLCRLLERLLPGTIEKVYPEPRSESECLSNIREFLRGCGASLRLELLFPPSQPPQHLVTTILLSASTFDANDLYQGQNFNKVLSSLVTLNKVTADIGLGSDSVCARPSSHRIKSFDSLGSQSLHTR,soluble
10,MGHHHHHHSHMPDNHKDPPDFNNLEMKLEERIELSREDQDIQSTSSSYPHCEALDHIVSMESTYDFHRQMAHKDLQKHRQEYEKASEKILELRKKLTDWNMDPKKRKWIEDDLDSLVRKQESALSRIRLAEKCTKRDLRNDPPPAYQPDDPLKDLRKNFEKKEKPTWNDVEKKKNGVFEFH,not soluble
11,MGHHHHHHSHMQPAKEVTKASDGSLLGDLGHTPLSKKEGIKWQRPRLSRQALMRCCLVKWILSSTAPQGSDSSDSELELSTVRHQPEGLDQLQAQTKFTKKELQSLYRGFKNECPTGLVDEDTFKLIYAQFFPQGDATTYAHFLFNAFDADGNGAIHFEDFVVGLSILLRGTVHEKLKWAFNLYDINKDGYITKEEMLAIMKSIYDMMGRHTYPILREDAPAEHVERFFEKMDRNQDGVVTIEEFLEACQKDENIMSSMQLFENVI,not soluble
12,MGHHHHHHSHMQSCESSGDSADDPLSRGLRRRGQPRVVVIGAGLAGLAAAKALLEQGFTDVTVLEASSHIGGRVQSVKLGHATFELGATWIHGSHGNPIYHLAEANGLLEETTDGERSVGRISLYSKNGVACYLTNHGRRIPKDVVEEFSDLYNEVYNLTQEFFRHDKPVNAESQNSVGVFTREEVRNRIRNDPDDPEATKRLKLAMIQQYLKVESCESSSHSMDEVSLSAFGEWTEIPGAHHIIPSGFMRVVELLAEGIPAHVIQLGKPVRCIHWDQASARPRGPEIEPRGEGDHNHDTGEGGQGGEEPRGGRWDEDEQWSVVVECEDCELIPADHVIVTVSLGVLKRQYTSFFRPGLPTEKVAAIHRLGIGTTDKIFLEFEEPFWGPECNSLQFVWEDEAESHTLTYPPELWYRKICGFDVLYPPERYGHVLSGWICGEEALVMEKCDDEAVAEICTEMLRQFTGNPNIPKPRRILRSAWGSNPYFRGSYSYTQVGSSGADVEKLAKPLPYTESSKTAPMQVLFSGEATHRKYYSTTHGALLSGQREAARLIEMYRDLFQQGT,soluble
13,MGHHHHHHSHMRSVSYVQRVALEFSGSLFPHAICLGDVDNDTLNELVVGDTSGKVSVYKNDDSRPWLTCSCQGMLTCVGVGDVCNKGKNLLVAVSAEGWFHLFDLTPAKVLDASGHHETLIGEEQRPVFKQHIPANTKVMLISDIDGDGCRELVVGYTDRVVRAFRWEELGEGPEHLTGQLVSLKKWMLEGHHDKPGITQGTGIAIVNK,not soluble
14,MGHHHHHHSHMSGRSVPHAHPATAEYEFANPSRLGEQRFGEGLLPEEILTPTLYHGYYVRPRAAPAGEGSRAGASELRLSEGKFQAFLDVSHFTPDEVTVRTVDNLLEVSARHPQRLDRHGFVSREFCRTYVLPADVDPWRVRAALSHDGILNLEAPRGGRHLDTEVNEVYISLLPAPPDPEEEEEAAIVEP,not soluble
15,MGHHHHHHSHMVPSREALLGPGTTAIRCPKKLQNQNYKGHGLSKGKEREQRASIRFKTTLMNTLMDVLRHRPGWVEVKDEGEWDFYWCDVSWLRENFDHTYMDEHVRISHFRNHYELTRKNYMVKNLKRFRKQLEREAGKLEAAKCDFFPKTFEMPCEYHLFVEEFRKNPGITWIMKPVARSQGKGIFLFRRLKDIVDWRKDTRSSDDQKDDIPVENYVAQRYIENPYLIGGRKFDLRVYVLVMSVFAECLLWSGHRRQDVHLTNVAVQKTSPDYHPKKGCKWTLQRFRQYLASKHGPEAVETLFRDIDNIFVKSLQSVQKVIISDKHCFELYGYDILIDQDLKPWLLEVNASPSLTASSQEDYELKTCLLEDTLHVVDMEARLTGREKRVGGFDLMWNDGPVSREEGAPDLSGMGNFVTNTHLGCVNDRKKQLRQLFCS,soluble
16,MGHHHHHHSHMWTPTEEEKYGVVICSFRGSVPQGLVLEIGETVQILEKCEGWYRGVSTKKPNVKGIFPANYIHLKKAIVSNRGQYETVVPLEDSIVTEVTATLQEWASLWKQLYVKHKVDLFYKLRHVMNELIDLRRQLLSGHLTQDQVREVKRHITVRLDWGNEHLGLDLVPRKDFEVVDSDQISVSDLYKMHL,not soluble
17,MGHHHHHHSHMWVDDFPLHRSACEGDSELLSRLLSERFSVNQLDSDHWAPIHYACWYGKVEATRILLEKGKCNPNLLNGQLSSPLHFAAGGGHAEIVQILLNHPETDRHITDQQGRSPLNICEENKQNNWEEAAKLLKEAINKPY,not soluble
18,MGHHHHHHSHMYSLNQEIKAFSRNNLRKQCTRVTTLTGKKIIETWKDARIHVVEEVEPSSGGGCGYVQDLSSDLQVGVIKPWLLLGSQDAAHDLDTLKKNKVTHILNVAYGVENAFLSDFTYKSISILDLPETNILSYFPECFEFIEEAKRKDGVVLVHCNAGVSRAAAIVIGFLMNSEQTSFTSAFSLVKNARPSICPNSGFMEQLRTYQEGKESNKCDRIQENSS,not soluble
19,MGHHHHHHSHNSARADVYPDGFKGHMLTKSEKNQLLAIASSLFVAFQLRAQHFQGNSRMPVIKPDIANWELSVKLHDKVHTVVASNNGSVFLVEVDGSKLNVTSTWNLFALIVCQR,not soluble
20,MGHHHHHHSHPRPEQHKSYKIRFNSISCSDPLVSSWRRKRKESSNTDSAGALGTLRFCVFGLGSRAYPHFCAFARAVDTRLEELGGERLLQLGQGDELCGQEEAFRGWAQAAFQAACETFCVGEDAKAAARDIFSPKRSWKRQRYRLSAQAEGLQLLPGLIHVHRRKMFQATIRSVENLQSSKSTRATILVRLDTGGQEGLQYQPGDHIGVCPPNRPGLV,not soluble
21,MGHHHHHHSHPSIPNPFPELCCSPFTSVLSADLFPKANSRKKQVIKVYSEDETSRALDVPSDITARDVCQLLILKNHYIDDHSWTLFEHLPHIGVERTIEDHELVIEVLSNWGIEEENKLYFRKNYAKYEFFKNP,soluble
22,MGHHHHHHSHQMVNQQQNKFDLRPLMEAVDTVKQKITLLENNDQRLAVLEEETNKHDTHINIHKAQLSKNEERFKLLEGTCYNGKLIWKVTDYKMKKREAVDGHTVSIFSQSFYTSRCGYRLCARAYLNGDGSGRGSHLSLYFVVMRGEFDSLLQWPFRQRVTLMLLDQSGKKNIMETFKPDPNSSSFKRPDGEMNIASGCPRFVAHSVLENAKNAYIKDDTLFLKVAVDLTDLEDL,not soluble
23,MGHHHHHHSHQVLTTSRKPGRKTRRFAKVLARFFNWKYVNRGKLSLEDLAGIAERFWIISEVKGNPAILNLYERGEKTLEVSFTLSNVNKIKMDDSPAVFKGKAPIDPLVFGAIPQTKAGLKLTRKVEFRKKVVVKGDEWLFFYDDEMLFKLRILKISRSS,soluble
24,MGHHHHHHSHRGAGRVSRWPPPHWLEAWRVSPRPLSPLSPATFGRGFIAVAVIPGLWARGRGCSSDRLPRPAGPARRQFQAASLLTRGWGRAWPWKQILKELDECYERFSRETDGAQK,not soluble
25,MGHHHHHHSHRNLDSRTFITIGDRNFEVEADDLVTISELGRGAYGVVEKVRHAQSGTIMAVKRIRATVNSQEQKRLLMDLDINMRTVDCFYTVTFYGALFREGDVWICMELMDTSLDKFYRKVLDKNMTIPEDILGEIAVSIVRALEHLHSKLSVIHRDVKPSNVLINKEGHVKMCDFGISGYLVDSVAKTMDAGCKPYMAPERINPELNQKGYNVKSDVWSLGITMIEMAILRFPYESWGTPFQQLKQVVEEPSPQLPADRFSPEFVDFTAQCLRKNPAERMSYLELMEHPFFTLHKTKKTDIAAFVKEILGEDS,not soluble
26,MGHHHHHHSHVAQFPTPFGGSLDTWAITVEERAKHDQQFHSLKPISGFITGDQARNFFFQSGLPQPVLAQIWALADMNNDGRMDQVEFSIAMKLIKLKLQGYQLPSALPPVMKQQPVAISS,soluble
27,MGHHHHHHSHVAVQTASKQVDGDYVVSEWSEIIEFCTADYSKVHLTQLLEKAEVIAGRMLKFSVFYRNQHKEYFDYVREHHGNAMQPSVKDNSGSHGSPISGKLEGIFFSCSTEFNTGKPPQDSPYGRYRFEIAAEKLFNPNTNLYFGDFYCMYTAYHYVILVIAPVGSPGDEFCKQRLPQLNSKDNKFLTCTEEDGVLVYHHAQDVILEVIYTDPVDLSLGTVAEITGHQLMSLSTANAKKDPSCKTCNISVGR,not soluble
